T1: human type I IFN receptor on HEK-Blue IFN-α/β cells (human, UniProt P17181 28-557; P48551 27-515)
T1 sequence (looked up) 1: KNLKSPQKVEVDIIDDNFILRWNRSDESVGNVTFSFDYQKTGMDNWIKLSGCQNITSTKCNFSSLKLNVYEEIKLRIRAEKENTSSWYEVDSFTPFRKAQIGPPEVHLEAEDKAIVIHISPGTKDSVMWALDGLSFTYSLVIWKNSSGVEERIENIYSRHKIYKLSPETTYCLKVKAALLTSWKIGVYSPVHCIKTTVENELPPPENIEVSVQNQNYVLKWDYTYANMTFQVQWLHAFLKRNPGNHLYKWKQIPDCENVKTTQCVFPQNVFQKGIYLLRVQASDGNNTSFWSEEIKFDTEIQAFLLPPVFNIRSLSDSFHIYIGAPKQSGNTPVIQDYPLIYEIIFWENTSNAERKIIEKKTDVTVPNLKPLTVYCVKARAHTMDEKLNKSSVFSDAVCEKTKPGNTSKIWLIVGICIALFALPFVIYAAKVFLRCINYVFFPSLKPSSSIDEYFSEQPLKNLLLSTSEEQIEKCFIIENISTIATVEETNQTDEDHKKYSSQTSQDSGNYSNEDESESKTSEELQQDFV
T1 sequence (looked up) 2: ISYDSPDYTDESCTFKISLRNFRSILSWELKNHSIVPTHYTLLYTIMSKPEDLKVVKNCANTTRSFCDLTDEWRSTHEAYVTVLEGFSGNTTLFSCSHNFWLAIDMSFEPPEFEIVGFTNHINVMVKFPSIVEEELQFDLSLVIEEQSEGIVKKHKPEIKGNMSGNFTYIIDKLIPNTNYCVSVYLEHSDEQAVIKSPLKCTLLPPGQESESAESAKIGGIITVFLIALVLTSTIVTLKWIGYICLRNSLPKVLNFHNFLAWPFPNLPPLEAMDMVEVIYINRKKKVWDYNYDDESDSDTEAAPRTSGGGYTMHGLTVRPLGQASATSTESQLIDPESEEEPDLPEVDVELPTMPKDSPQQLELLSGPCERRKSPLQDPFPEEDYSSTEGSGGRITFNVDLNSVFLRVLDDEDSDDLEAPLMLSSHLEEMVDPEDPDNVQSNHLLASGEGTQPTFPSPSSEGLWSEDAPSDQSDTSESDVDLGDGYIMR


Key:
human CD40 = human CD40 (human, UniProt P25942 21-277); experiment: cell-based or functional assay
Chain of human CD40 (P25942 21-277): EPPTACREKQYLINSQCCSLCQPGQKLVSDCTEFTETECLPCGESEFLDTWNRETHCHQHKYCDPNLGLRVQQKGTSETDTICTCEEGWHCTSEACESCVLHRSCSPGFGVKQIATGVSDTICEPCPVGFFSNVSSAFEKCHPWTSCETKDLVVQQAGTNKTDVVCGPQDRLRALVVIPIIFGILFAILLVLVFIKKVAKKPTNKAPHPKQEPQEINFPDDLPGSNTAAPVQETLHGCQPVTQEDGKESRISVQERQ

[1] = target: T1, human type I IFN receptor on HEK-Blue …; experiment: cell-based or functional assay

Binder | CD40 EC50 (HEK-Blue CD40L NFκB-SEAP reporter cells) (human CD40) | IFNβ EC50 (HEK-Blue IFN-α/β SEAP reporter cells) [1] | IFNε EC50 (HEK-Blue IFN-α/β SEAP reporter cells) [1]
IFA1 (antibody, human IgG2, kappa) light: DIQMTQSPSSVSASVGDRVTITCRASQGIYSWLAWYQQKPGKAPNLLIYTASTLQSGVPSRFSGSGSGTDFTLTISSLQPEDFATYYCQQANIFPLTFGGGTKVEIKRTVAAPSVFIFPPSDEQLKSGTASVVCLLNNFYPREAKVQWKVDNALQSGNSQESVTEQDSKDSTYSLSSTLTLSKADYEKHKVYACEVTHQGLSSPVTKSFNRGECAEAAAKEAAAKAMSYNLLGFLQRSSNFQCQKLLWQLNGRLEYCLKDRMNFDIPEEIKQLQQFQKEDAALTIYEMLQNIFAIFRQDSSSTGWNETIVENLLANVYHQINHLKTVLEEKLEKEDFTRGKLMSSLHLKRYYGRILHYLKAKEYSHCAWTIVRVEILRNFYFINRLTGYLRN heavy: not shown | 0.0741 µg/mL | 0.00164 µg/mL | –
IFA10 (antibody, human IgG2, kappa) heavy: not shown light: DIQMTQSPSSVSASVGDRVTITCRASQGIYSWLAWYQQKPGKAPNLLIYTASTLQSGVPSRFSGSGSGTDFTLTISSLQPEDFATYYCQQANIFPLTFGGGTKVEIKRTVAAPSVFIFPPSDEQLKSGTASVVCLLNNFYPREAKVQWKVDNALQSGNSQESVTEQDSKDSTYSLSSTLTLSKADYEKHKVYACEVTHQGLSSPVTKSFNRGEC | 0.0265 µg/mL | 0.0045 µg/mL | –
IFA11 (antibody, human IgG2, kappa) heavy: not shown light: DIQMTQSPSSVSASVGDRVTITCRASQGIYSWLAWYQQKPGKAPNLLIYTASTLQSGVPSRFSGSGSGTDFTLTISSLQPEDFATYYCQQANIFPLTFGGGTKVEIKRTVAAPSVFIFPPSDEQLKSGTASVVCLLNNFYPREAKVQWKVDNALQSGNSQESVTEQDSKDSTYSLSSTLTLSKADYEKHKVYACEVTHQGLSSPVTKSFNRGEC | 0.0428 µg/mL | 0.00178 µg/mL | –
IFA12 (antibody, human IgG2, kappa) light: DIQMTQSPSSVSASVGDRVTITCRASQGIYSWLAWYQQKPGKAPNLLIYTASTLQSGVPSRFSGSGSGTDFTLTISSLQPEDFATYYCQQANIFPLTFGGGTKVEIKRTVAAPSVFIFPPSDEQLKSGTASVVCLLNNFYPREAKVQWKVDNALQSGNSQESVTEQDSKDSTYSLSSTLTLSKADYEKHKVYACEVTHQGLSSPVTKSFNRGECPAPAMSYNLLGFLQRSSNFQCQKLLWQLNGRLEYCLKDRMNFDIPEEIKQLQQFQKEDAALTIYEMLQNIFAIFRQDSSSTGWNETIVENLLANVYHQINHLKTVLEEKLEKEDFTRGKLMSSLHLKRYYGRILHYLKAKEYSHCAWTIVRVEILRNFYFINRLTGYLRN heavy: not shown | 0.105 µg/mL | 0.00364 µg/mL | –
IFA13 (antibody, human IgG2, kappa) light: DIQMTQSPSSVSASVGDRVTITCRASQGIYSWLAWYQQKPGKAPNLLIYTASTLQSGVPSRFSGSGSGTDFTLTISSLQPEDFATYYCQQANIFPLTFGGGTKVEIKRTVAAPSVFIFPPSDEQLKSGTASVVCLLNNFYPREAKVQWKVDNALQSGNSQESVTEQDSKDSTYSLSSTLTLSKADYEKHKVYACEVTHQGLSSPVTKSFNRGECPAPAMSYNLLGFLQRSSNFQSQKLLWQLNGRLEYCLKDRMNFDIPEEIKQLQQFQKEDAALTIYEMLQNIFAIFRQDSSSTGWNETIVENLLANVYHQINHLKTVLEEKLEKEDFTRGKLMSSLHLKRYYGRILHYLKAKEYSHCAWTIVRVEILRNFYFINRLTGYLRN heavy: not shown | 0.192 µg/mL | 0.0007 µg/mL | –
IFA19 (antibody, human IgG2, kappa) light: DIQMTQSPSSVSASVGDRVTITCRASQGIYSWLAWYQQKPGKAPNLLIYTASTLQSGVPSRFSGSGSGTDFTLTISSLQPEDFATYYCQQANIFPLTFGGGTKVEIKRTVAAPSVFIFPPSDEQLKSGTASVVCLLNNFYPREAKVQWKVDNALQSGNSQESVTEQDSKDSTYSLSSTLTLSKADYEKHKVYACEVTHQGLSSPVTKSFNRGECSGGTSGSTSGTGSMSYNLLGFLQRSSNFQSQKLLWQLNGRLEYCLKDRMNFDIPEEIKQLQQFQKEDAALTIYEMLQNIFAIFRQDSSSTGWNETIVENLLANVYHQINHLKTVLEEKLEKEDFTRGKLMSSLHLKRYYGRILHYLKAKEYSHCAWTIVRVEILRNFYFINRLTGYLRN heavy: not shown | 0.11 µg/mL | 0.0013 µg/mL | –
IFA20 (antibody, human IgG2, kappa) light: DIQMTQSPSSVSASVGDRVTITCRASQGIYSWLAWYQQKPGKAPNLLIYTASTLQSGVPSRFSGSGSGTDFTLTISSLQPEDFATYYCQQANIFPLTFGGGTKVEIKRTVAAPSVFIFPPSDEQLKSGTASVVCLLNNFYPREAKVQWKVDNALQSGNSQESVTEQDSKDSTYSLSSTLTLSKADYEKHKVYACEVTHQGLSSPVTKSFNRGECAEAAAKEAAAKAAEAAAKEAAAKAMSYNLLGFLQRSSNFQSQKLLWQLNGRLEYCLKDRMNFDIPEEIKQLQQFQKEDAALTIYEMLQNIFAIFRQDSSSTGWNETIVENLLANVYHQINHLKTVLEEKLEKEDFTRGKLMSSLHLKRYYGRILHYLKAKEYSHCAWTIVRVEILRNFYFINRLTGYLRN heavy: not shown | 0.182 µg/mL | 0.00234 µg/mL | –
IFA2 (antibody, human IgG2, kappa) light: DIQMTQSPSSVSASVGDRVTITCRASQGIYSWLAWYQQKPGKAPNLLIYTASTLQSGVPSRFSGSGSGTDFTLTISSLQPEDFATYYCQQANIFPLTFGGGTKVEIKRTVAAPSVFIFPPSDEQLKSGTASVVCLLNNFYPREAKVQWKVDNALQSGNSQESVTEQDSKDSTYSLSSTLTLSKADYEKHKVYACEVTHQGLSSPVTKSFNRGECAEAAAKEAAAKAMSYNLLGFLQRSSNFQSQKLLWQLNGRLEYCLKDRMNFDIPEEIKQLQQFQKEDAALTIYEMLQNIFAIFRQDSSSTGWNETIVENLLANVYHQINHLKTVLEEKLEKEDFTRGKLMSSLHLKRYYGRILHYLKAKEYSHCAWTIVRVEILRNFYFINRLTGYLRN heavy: not shown | 0.111 µg/mL | 0.00014 µg/mL | –
IFA126 (antibody, human IgG2, kappa) light: DIQMTQSPSSVSASVGDRVTITCRASQGIYSWLAWYQQKPGKAPNLLIYTASTLQSGVPSRFSGSGSGTDFTLTISSLQPEDFATYYCQQANIFPLTFGGGTKVEIKRTVAAPSVFIFPPSDEQLKSGTASVVCLLNNFYPREAKVQWKVDNALQSGNSQESVTEQDSKDSTYSLSSTLTLSKADYEKHKVYACEVTHQGLSSPVTKSFNRGECGGGGSGGGGSGGGGSMSYNLLGFLQRSSNFQSQKLLWQLNGRLEYCLKDRMNFDIPEEIKQLQQFQKEDAALTIYEMLQNIFAIFRQDSSSTGWNETIVENLLANVYHQINHLKTVLEEKLEKEDFTRGKLMSSLHLKRYYGRILHYLKAKEYSHCAWTIVRVEILRNFYFINRLTGYLRN heavy: not shown | 0.364 µg/mL | 0.00208 µg/mL | –
IFA8 (antibody, human IgG2, kappa) heavy: not shown light: DIQMTQSPSSVSASVGDRVTITCRASQGIYSWLAWYQQKPGKAPNLLIYTASTLQSGVPSRFSGSGSGTDFTLTISSLQPEDFATYYCQQANIFPLTFGGGTKVEIKRTVAAPSVFIFPPSDEQLKSGTASVVCLLNNFYPREAKVQWKVDNALQSGNSQESVTEQDSKDSTYSLSSTLTLSKADYEKHKVYACEVTHQGLSSPVTKSFNRGEC | 0.0397 µg/mL | 0.0029 µg/mL | –
IFA49 (antibody, human IgG2, kappa) heavy: not shown light: DIQMTQSPSSVSASVGDRVTITCRASQGIYSWLAWYQQKPGKAPNLLIYTASTLQSGVPSRFSGSGSGTDFTLTISSLQPEDFATYYCQQANIFPLTFGGGTKVEIKRTVAAPSVFIFPPSDEQLKSGTASVVCLLNNFYPREAKVQWKVDNALQSGNSQESVTEQDSKDSTYSLSSTLTLSKADYEKHKVYACEVTHQGLSSPVTKSFNRGEC | 0.0658 µg/mL | – | 0.0782 µg/mL
IFA9 (antibody, human IgG2, kappa) heavy: not shown light: DIQMTQSPSSVSASVGDRVTITCRASQGIYSWLAWYQQKPGKAPNLLIYTASTLQSGVPSRFSGSGSGTDFTLTISSLQPEDFATYYCQQANIFPLTFGGGTKVEIKRTVAAPSVFIFPPSDEQLKSGTASVVCLLNNFYPREAKVQWKVDNALQSGNSQESVTEQDSKDSTYSLSSTLTLSKADYEKHKVYACEVTHQGLSSPVTKSFNRGEC | 0.0426 µg/mL | 0.0007 µg/mL | –
